Measured values reported in US12344663 (CDR LIFE, dated 2025).
One block for each binder: values may come before it.

How the values were obtained:
human complement C3 [1] = target: T1, human complement C3 (human, UniProt P01024 23-1663); experiment: cell-based or functional assay
human complement C3 [2] = target: T1, human complement C3; experiment: cell-based or functional assay; remark: listed apart in the source
human complement C3 [3] = target: T1, human complement C3; experiment: SPR (Biacore T100), target immobilized, single cycle kinetics, 1:1 Langmuir fit
Experimental: (§1) The kinetic parameters of the candidates are determined using a surface plasmon resonance (SPR) and Biacore T100 device. C3 and different variants thereof (Table 19) are immobilized as a ligand on a HC30M SPR sensor chip (XanTec bionanalytics, Germany) using EDC/[…] linking chemistry. Five increasing concentrations of each molecule (analyte) are consecutively injected using the single cycle kinetics (SCK) mode to determine the kinetic parameters. Regeneration between the candidates is done with 10 mM glycine*HCl, 2 M NaCl, pH 3.5. The data is fitted to a 1:1 Langmuir binding model and the kinetic parameters of on-rate (ka), off-rate (kd), and affinity […] were determined.

human C3b [4] = target: T2, human C3b (human, UniProt P01024 23-667; P01024 749-1663, limits assumed); experiment: as above
T2 construct: domain: C3b; also called C3 cleavage fragments C3b
T2 sequence (P01024 23-667 limits assumed, chain 1 of 2): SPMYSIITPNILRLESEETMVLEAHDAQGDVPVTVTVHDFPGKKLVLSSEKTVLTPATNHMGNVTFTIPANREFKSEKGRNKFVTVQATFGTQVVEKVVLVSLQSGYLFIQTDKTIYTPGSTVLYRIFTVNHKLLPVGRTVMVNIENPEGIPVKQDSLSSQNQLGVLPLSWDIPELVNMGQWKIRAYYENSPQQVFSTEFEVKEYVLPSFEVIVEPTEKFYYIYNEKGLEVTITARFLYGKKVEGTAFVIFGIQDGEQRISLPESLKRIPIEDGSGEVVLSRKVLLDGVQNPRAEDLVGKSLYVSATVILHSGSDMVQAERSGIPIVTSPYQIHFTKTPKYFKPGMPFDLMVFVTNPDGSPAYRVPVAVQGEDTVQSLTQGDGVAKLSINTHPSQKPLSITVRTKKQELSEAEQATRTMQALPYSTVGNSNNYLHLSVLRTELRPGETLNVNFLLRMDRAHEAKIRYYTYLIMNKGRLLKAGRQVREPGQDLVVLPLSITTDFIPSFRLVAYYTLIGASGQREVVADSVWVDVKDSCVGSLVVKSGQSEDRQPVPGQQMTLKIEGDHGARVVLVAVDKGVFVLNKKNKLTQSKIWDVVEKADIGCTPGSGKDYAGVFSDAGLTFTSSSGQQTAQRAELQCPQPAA
T2 sequence (P01024 749-1663 limits assumed, chain 2 of 2): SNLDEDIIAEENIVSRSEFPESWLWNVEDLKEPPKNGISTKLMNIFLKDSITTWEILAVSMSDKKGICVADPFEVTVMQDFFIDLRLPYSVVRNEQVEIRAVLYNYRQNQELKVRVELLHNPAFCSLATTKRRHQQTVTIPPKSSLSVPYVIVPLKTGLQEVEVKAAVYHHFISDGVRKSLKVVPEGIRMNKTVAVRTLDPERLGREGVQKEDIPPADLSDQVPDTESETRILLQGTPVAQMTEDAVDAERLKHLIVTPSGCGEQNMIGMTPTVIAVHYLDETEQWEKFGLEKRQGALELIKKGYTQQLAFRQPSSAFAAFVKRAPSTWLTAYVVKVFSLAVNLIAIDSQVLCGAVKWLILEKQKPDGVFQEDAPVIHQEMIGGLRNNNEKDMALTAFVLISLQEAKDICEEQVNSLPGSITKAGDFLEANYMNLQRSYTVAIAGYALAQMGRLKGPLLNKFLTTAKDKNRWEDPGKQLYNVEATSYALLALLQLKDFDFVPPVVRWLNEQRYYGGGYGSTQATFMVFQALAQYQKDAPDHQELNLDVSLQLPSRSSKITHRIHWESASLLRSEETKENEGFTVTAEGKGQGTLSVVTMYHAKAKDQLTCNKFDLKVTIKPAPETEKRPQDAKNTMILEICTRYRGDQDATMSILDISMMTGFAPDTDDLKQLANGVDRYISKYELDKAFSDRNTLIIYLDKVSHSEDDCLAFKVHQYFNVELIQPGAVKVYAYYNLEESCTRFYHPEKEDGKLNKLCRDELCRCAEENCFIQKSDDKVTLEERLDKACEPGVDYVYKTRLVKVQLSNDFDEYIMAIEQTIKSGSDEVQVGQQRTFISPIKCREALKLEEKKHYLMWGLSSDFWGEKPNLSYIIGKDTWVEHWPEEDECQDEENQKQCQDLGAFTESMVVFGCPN
Experimental: as §1

human complement C3 [5] = target: T1, human complement C3; experiment: as above; remark: listed apart in the source
Experimental: as §1

human C3b [6] = target: T2, human C3b; experiment: as above; remark: listed apart in the source
Experimental: as §1

cynomolgus C3 = target: T3, cynomolgus C3 (cynomolgus (Macaca fascicularis)); experiment: as above
T3 construct: also called cyno C3
Experimental: as §1

[7] = target: T4, recombinant wild-type human C3 (human, UniProt P01024 23-1663, limits assumed); experiment: as above
T4 construct: Expressed in CHO cells with an N-terminal 6×His tag; also called recombinant C3; wildtype C3
T4 sequence (P01024 other isoform, or with tags, fused parts or gaps limits assumed): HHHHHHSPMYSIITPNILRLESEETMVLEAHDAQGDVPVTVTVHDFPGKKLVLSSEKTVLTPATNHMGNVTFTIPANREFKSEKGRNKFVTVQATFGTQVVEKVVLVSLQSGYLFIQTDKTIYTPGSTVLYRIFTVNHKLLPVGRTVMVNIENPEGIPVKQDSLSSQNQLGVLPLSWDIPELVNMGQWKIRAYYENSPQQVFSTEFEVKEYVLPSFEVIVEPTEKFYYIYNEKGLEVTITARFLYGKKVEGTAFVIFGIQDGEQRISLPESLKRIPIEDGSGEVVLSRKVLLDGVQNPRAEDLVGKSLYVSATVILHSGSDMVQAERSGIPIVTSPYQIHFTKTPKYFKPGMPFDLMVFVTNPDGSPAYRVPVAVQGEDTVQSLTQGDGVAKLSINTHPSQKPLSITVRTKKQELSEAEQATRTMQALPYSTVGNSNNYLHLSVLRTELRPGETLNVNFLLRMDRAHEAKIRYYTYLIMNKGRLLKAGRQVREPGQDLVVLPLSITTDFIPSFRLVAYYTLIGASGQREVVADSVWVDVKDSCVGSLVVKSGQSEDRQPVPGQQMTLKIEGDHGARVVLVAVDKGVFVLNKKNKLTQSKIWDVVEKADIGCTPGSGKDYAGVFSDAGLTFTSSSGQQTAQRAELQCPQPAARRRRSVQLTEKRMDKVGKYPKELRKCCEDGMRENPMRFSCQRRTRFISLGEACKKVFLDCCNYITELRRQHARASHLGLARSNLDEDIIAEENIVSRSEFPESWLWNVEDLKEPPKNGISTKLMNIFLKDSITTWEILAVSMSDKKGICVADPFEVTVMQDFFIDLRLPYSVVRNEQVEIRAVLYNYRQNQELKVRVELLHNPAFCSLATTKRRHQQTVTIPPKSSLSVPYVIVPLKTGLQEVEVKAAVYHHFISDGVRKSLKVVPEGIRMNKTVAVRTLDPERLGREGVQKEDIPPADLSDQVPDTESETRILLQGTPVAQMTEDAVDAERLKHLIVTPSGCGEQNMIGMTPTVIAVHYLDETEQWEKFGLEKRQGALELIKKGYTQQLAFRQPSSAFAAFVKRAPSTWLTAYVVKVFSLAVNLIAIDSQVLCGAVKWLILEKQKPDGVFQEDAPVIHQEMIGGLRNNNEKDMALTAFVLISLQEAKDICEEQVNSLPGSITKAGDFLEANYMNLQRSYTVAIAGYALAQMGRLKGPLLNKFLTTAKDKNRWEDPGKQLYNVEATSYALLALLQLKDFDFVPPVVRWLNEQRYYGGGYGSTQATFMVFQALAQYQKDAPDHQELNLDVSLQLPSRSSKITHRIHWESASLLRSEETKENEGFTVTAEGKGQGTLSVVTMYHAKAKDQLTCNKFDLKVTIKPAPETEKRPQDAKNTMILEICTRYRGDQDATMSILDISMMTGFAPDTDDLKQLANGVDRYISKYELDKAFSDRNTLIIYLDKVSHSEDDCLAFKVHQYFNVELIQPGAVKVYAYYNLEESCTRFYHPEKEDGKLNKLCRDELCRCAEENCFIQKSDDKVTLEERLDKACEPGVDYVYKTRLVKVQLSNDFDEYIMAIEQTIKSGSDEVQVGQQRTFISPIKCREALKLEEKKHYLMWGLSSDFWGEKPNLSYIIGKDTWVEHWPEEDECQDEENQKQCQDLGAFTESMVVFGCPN
Experimental: as §1

human C3 P314L = target: T5, human C3 P314L (human, UniProt P01024 23-1663, limits assumed); experiment: as above
T5 construct: Expressed in CHO cells with an N-terminal 6×His tag; also called C3 SNP1 P314L; C3 SNP P314L
T5 sequence (P01024 other isoform, or with tags, fused parts or gaps P314L P314L limits assumed): as the sequence (P01024 other isoform, or with tags, fused parts or gaps limits assumed) above, with P298L counted along it
Experimental: as §1

human C3 R102G = target: T6, human C3 R102G (human, UniProt P01024 23-1663, limits assumed); experiment: as above
T6 construct: Expressed in CHO cells with an N-terminal 6×His tag; also called C3 SNP2 R102G; C3 SNP R102G
T6 sequence (P01024 other isoform, or with tags, fused parts or gaps R102G R102G limits assumed): as the sequence (P01024 other isoform, or with tags, fused parts or gaps limits assumed) above, with R86G counted along it
Experimental: as §1

human complement C3 [8] = target: T1, human complement C3; experiment: SPR
human C3b [9] = target: T2, human C3b; experiment: SPR
human complement C3 [10] = target: T1, human complement C3; experiment: affinity of the purified scFv, method not given
human complement C3 [11] = target: T1, human complement C3; experiment: method not given; reference Clone IV
human C3b [12] = target: T2, human C3b; experiment: method not given; reference Clone IV

T1 sequence (P01024 23-1663 limits assumed): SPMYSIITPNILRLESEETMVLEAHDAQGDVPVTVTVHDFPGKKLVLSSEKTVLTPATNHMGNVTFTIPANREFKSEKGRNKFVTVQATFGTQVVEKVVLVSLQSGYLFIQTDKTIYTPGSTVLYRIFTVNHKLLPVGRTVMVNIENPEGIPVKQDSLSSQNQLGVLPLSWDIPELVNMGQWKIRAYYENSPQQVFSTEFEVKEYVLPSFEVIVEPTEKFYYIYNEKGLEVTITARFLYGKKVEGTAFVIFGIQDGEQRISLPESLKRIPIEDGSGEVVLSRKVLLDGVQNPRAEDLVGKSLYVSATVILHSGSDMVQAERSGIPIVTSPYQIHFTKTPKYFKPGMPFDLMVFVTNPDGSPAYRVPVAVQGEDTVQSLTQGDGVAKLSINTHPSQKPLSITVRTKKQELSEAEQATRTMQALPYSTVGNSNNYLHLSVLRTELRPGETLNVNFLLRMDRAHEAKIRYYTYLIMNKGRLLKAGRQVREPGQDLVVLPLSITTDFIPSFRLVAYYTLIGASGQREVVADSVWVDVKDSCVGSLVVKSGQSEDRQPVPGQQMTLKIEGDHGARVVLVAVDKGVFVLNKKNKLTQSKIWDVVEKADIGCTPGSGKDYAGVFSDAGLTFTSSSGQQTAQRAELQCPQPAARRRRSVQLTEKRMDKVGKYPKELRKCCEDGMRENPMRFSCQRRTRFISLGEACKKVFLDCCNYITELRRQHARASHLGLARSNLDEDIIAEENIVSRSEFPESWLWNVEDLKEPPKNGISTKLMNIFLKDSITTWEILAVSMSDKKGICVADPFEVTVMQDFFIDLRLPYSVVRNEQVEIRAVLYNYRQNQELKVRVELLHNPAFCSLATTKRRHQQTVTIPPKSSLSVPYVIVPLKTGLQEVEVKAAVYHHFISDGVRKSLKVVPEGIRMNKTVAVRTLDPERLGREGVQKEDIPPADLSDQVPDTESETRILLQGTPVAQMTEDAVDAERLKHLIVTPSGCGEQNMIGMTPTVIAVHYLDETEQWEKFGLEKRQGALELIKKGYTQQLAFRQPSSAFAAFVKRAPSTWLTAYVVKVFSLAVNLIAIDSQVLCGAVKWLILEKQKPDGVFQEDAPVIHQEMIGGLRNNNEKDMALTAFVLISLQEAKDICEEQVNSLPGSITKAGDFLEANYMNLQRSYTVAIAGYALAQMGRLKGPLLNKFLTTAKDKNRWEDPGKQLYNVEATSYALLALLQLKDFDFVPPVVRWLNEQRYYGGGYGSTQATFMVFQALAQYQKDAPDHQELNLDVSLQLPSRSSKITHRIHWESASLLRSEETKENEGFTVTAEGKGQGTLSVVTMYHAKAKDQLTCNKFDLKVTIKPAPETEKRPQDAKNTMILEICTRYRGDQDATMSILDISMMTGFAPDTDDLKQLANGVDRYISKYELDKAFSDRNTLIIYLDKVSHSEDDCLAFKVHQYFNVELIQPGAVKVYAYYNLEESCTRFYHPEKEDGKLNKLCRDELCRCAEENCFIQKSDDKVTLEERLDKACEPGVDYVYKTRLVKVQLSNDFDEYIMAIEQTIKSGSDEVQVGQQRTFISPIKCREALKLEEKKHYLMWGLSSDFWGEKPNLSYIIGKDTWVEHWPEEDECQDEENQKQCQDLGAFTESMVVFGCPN

IC50, complement inhibition in the alternative pathway (human complement C3 [1]): 0.28 µM
IC50, complement inhibition in the classical pathway (human complement C3 [1]): 0.08 µM
B1: Clone IV (scFv)
scFv: QSVKESGGRLVTPGTPLTLTCTVSGFSLYNYAMNWVRQAPGKGLEWIGIINTDGNTNYASWAKGRFTISTTSSTTVDLKITSPTTEDTATYFCPRAVGYHHHALDPWGPGTLVTVSSGGGGSGGGGSGGGGSGGGGASELVLTQSPSVSAALGASAKLTCTLSSAHKTYTIDWYQQQQGEAPRYLMQLKSDGSYTKGTGVPDRFSGSSSGADRYLIIPSVQADDEADYYCGTDYGGGYVFGGGTQLTVTG

IC50 (nM), Alternative Pathway, MAC deposition (WEISLAB, human serum) (human complement C3 [2]): 360 nM
IC50 (nM), Classical Pathway, MAC deposition (WEISLAB, human serum) (human complement C3 [2]): 77 nM
IC50 (nM), Lectin Pathway, MAC deposition (WEISLAB, human serum) (human complement C3 [2]): 71 nM
Kd (human complement C3 [3]): 0.022 nM
Kd (human C3b [4]): 0.05 nM
Kd (human complement C3 [5]): 0.022 nM
koff (human complement C3 [5]): 5.5e-06 s⁻¹
kon (human complement C3 [5]): 250000 M⁻¹ s⁻¹
Kd (human C3b [6]): 0.05 nM
koff (human C3b [6]): 1.2e-05 s⁻¹
kon (human C3b [6]): 250000 M⁻¹ s⁻¹
Kd (cynomolgus C3): 0.07 nM
koff (cynomolgus C3): 1.5e-05 s⁻¹
kon (cynomolgus C3): 210000 M⁻¹ s⁻¹
Kd [7]: 0.035 nM
koff [7]: 1e-05 s⁻¹
kon [7]: 300000 M⁻¹ s⁻¹
Kd (human C3 P314L): < 0.04 nM
koff (human C3 P314L): < 1.1e-05 s⁻¹
kon (human C3 P314L): 290000 M⁻¹ s⁻¹
Kd (human C3 R102G): 0.021 nM
koff (human C3 R102G): 7e-06 s⁻¹
kon (human C3 R102G): 330000 M⁻¹ s⁻¹
B2: Clone II (scFv)
scFv: MQLVLTQSPSASASLGASVKLTCTLSSAHKTYTIDWYQQQPEKCPRYLMQLKSDGSYTKGSGIPDRFSGSSSGAERYLTISSLQSEDEADYYCGTEGVGGYVFGGGTKLTVLGGGGGSGGGGSGGGGSGGGGSQVQLVESGGGSVQPGRSLRLSCAASGFTFSNYAMNWVRQAPGKGLEWVAIINVGGGTNYADSVKGRFTISRDNSKNTLYLQMNSLRAEDTASYYCARAVGYHHARLDPWGCGTSVTVSS
notes: also called scFv of the invention
IC50 (nM), Alternative Pathway, Hemolysis (rabbit erythrocytes, human serum) (human complement C3 [2]): 668 nM
IC50 (nM), Classical Pathway, Hemolysis (antibody-sensitized sheep erythrocytes, human serum) (human complement C3 [2]): 69 nM

IC50 (nM), Alternative Pathway, MAC deposition (WEISLAB, human serum) (human complement C3 [2]): 349 nM
IC50 (nM), Classical Pathway, MAC deposition (WEISLAB, human serum) (human complement C3 [2]): 73 nM
IC50 (nM), Lectin Pathway, MAC deposition (WEISLAB, human serum) (human complement C3 [2]): 64 nM
Kd (human complement C3 [3]): 0.151 nM
Kd (human C3b [4]): 0.127 nM
Kd (human complement C3 [5]): 0.151 nM
koff (human complement C3 [5]): 3.6e-05 s⁻¹
kon (human complement C3 [5]): 240000 M⁻¹ s⁻¹
Kd (human C3b [6]): 0.127 nM
koff (human C3b [6]): 3.1e-05 s⁻¹
kon (human C3b [6]): 250000 M⁻¹ s⁻¹
Kd (cynomolgus C3): 0.208 nM
koff (cynomolgus C3): 4.3e-05 s⁻¹
kon (cynomolgus C3): 200000 M⁻¹ s⁻¹
Kd [7]: 0.128 nM
koff [7]: 3.5e-05 s⁻¹
kon [7]: 270000 M⁻¹ s⁻¹
Kd (human C3 P314L): 0.127 nM
koff (human C3 P314L): 3.2e-05 s⁻¹
kon (human C3 P314L): 250000 M⁻¹ s⁻¹
Kd (human C3 R102G): 0.115 nM
koff (human C3 R102G): 3.2e-05 s⁻¹
kon (human C3 R102G): 280000 M⁻¹ s⁻¹
B3: Clone III (scFv)
scFv: MQLVLTQSPSASASLGASVKLTCTLSSAHKTYTIDWYQQQPEKCPRYLMQLKSEGSYTKGSGIPDRFSGSSSGAERYLTISSLQSEDEADYYCGTEGVGGYVFGGGTKLTVLGGGGGSGGGGSGGGGSGGGGSQVQLVESGGGSVQPGRSLRLSCAASGFTFSNYAMNWVRQAPGKGLEWVAIINVGGGTNYADSVKGRFTISRDNSKNTLYLQMNSLRAEDTASYYCARAVGYHHARLDPWGCGTSVTVSS
notes: as for B2
IC50 (nM), Alternative Pathway, Hemolysis (rabbit erythrocytes, human serum) (human complement C3 [2]): 745 nM
IC50 (nM), Classical Pathway, Hemolysis (antibody-sensitized sheep erythrocytes, human serum) (human complement C3 [2]): 72 nM

Kd (human complement C3 [8]): 0.116 nM
Kd (human C3b [9]): 0.11 nM
IC50, complement inhibition in the alternative pathway (human complement C3 [1]): 0.26 µM
IC50, complement inhibition in the classical pathway (human complement C3 [1]): 0.06 µM
B4: Clone XIII (scFv)
scFv: MQLVLTQSPSASASLGASVKLTCTLSSAHKTYTIDWYQQQPEKCPRYLMQLKSEGSYTKGTGVPDRFSGSSSGAERYLTISSLQSEDEADYYCGTEGVGGYVFGGGTKLTVLGGGGGSGGGGSGGGGSGGGGSQVQVVESGGGSVQPGRSLRLSCAVSGFSLYNYAMNWVRQAPGKGLEWIGIINVGGGTNYASWAKGRFTISTDNSKNTVYLQMNSLRAEDTASYYCARAVGYHHARLDPWGCGTSVTVSS

Kd (human complement C3 [10]): 1.3 nM
B5: Clone IX (scFv)
scFv: MQLVLTQSPSASASLGASVKLTCTLSSAHKTYTIDWYQQQPEKGPRYLMQLKSEGSYTKGTGVPDRFSGSSSGAERYLTISSLQSEDSAVYYCGTDGVGGYVFGCGTKLTVLGGGGGSGGGGSGGGGSGGGGSQVQVVESGGGSVQPGRSLRLSCAVSGFSLYNYAMNWVRQAPGKCLEWIGIINVGGGTNYASWAKGRFTISTDNSKNTVYLQMNSLRAEDTASYYCARAVGYHHHALDPWGQGTSVTVSS

Kd (human complement C3 [8]): 4.7 nM
Kd (human C3b [9]): 4.8 nM
IC50, complement inhibition in the alternative pathway (human complement C3 [1]): 0.21 µM
IC50, complement inhibition in the classical pathway (human complement C3 [1]): 0.098 µM
B6: Clone XII (scFv)
scFv: MQLVLTQSPSASASLGASVKLTCTLSSAHKTYTIDWYQQQPEKCPRYLMQLKSEGSYTKGTGVPDRFSGSSSGAERYLTISSLQSEDEADYYCGTDYGGGYVFGGGTKLTVLGGGGGSGGGGSGGGGSGGGGSQVQVVESGGGSVQPGRSLRLSCAVSGFSLYNYAMNWVRQAPGKGLEWIGIINVGGGTNYASWAKGRFTISTDNSKNTVYLQMNSLRAEDTASYYCARAVGYHHARLDPWGCGTSVTVSS

Kd (human complement C3 [10]): 1.1 nM
B7: Clone VII (scFv)
scFv: MQLVLTQSPSASASLGASVKLTCTLSSAHKTYTIDWYQQQPEKGPRYLMQLKSEGSYTKGTGVPDRFSGSSSGAERYLTISSLQSEDSAVYYCGTEGVGGYVFGCGTKLTVLGGGGGSGGGGSGGGGSGGGGSQVQVVESGGGSVQPGRSLRLSCAVSGFSLYNYAMNWVRQAPGKCLEWIGIINVGGGTNYASWAKGRFTISTDNSKNTVYLQMNSLRAEDTASYYCARAVGYHHHALDPWGQGTSVTVSS

fold increase in the binding affinity compared to Clone IV (human complement C3 [11]): ~10 fold
fold increase in the binding affinity compared to Clone IV (human C3b [12]): ~10 fold
Kd (human complement C3 [10]): 0.184 nM
B8: Clone VIII (scFv)
scFv: MQLVLTQSPSASASLGASVKLTCTLSSAHKTYTIDWYQQQPEKGPRYLMQLKSEGSYTKGTGVPDRFSGSSSGAERYLTISSLQSEDSAVYYCGTEGVGGYVFGCGTKLTVLGGGGGSGGGGSGGGGSGGGGSQVQVVESGGGSVQPGRSLRLSCAVSGFSLYNYAMNWVRQAPGKCLEWIGIINVGGGTNYASWAKGRFTISTDNSKNTVYLQMNSLRAEDTASYYCARAVGYHHSRLDPWGQGTSVTVSS

Kd (human complement C3 [8]): 0.129 nM
Kd (human C3b [9]): 0.116 nM
IC50, complement inhibition in the alternative pathway (human complement C3 [1]): 0.25 µM
IC50, complement inhibition in the classical pathway (human complement C3 [1]): 0.05 µM
B9: Clone XIV (scFv)
scFv: MQLVLTQSPSASASLGASVKLTCTLSSAHKTYTIDWYQQQPEKCPRYLMQLKSEGSYTKGTGVPDRFSGSSSGAERYLTISSLQSEDEADYYCGTEGVGGYVFGGGTKLTVLGGGGGSGGGGSGGGGSGGGGSQVQVVESGGGSVQPGRSLRLSCAVSGFSLYNYAMNWVRQAPGKGLEWIGIINVGGGTNYASWAKGRFTISTDNSKNTVYLQMNSLRAEDTASYYCARAVGYHHSRLDPWGCGTSVTVSS
notes: also called Cone XIV

IC50 (nM), Alternative Pathway, MAC deposition (WEISLAB, human serum) (human complement C3 [2]): 548 nM
IC50 (nM), Classical Pathway, MAC deposition (WEISLAB, human serum) (human complement C3 [2]): 56 nM
IC50 (nM), Lectin Pathway, MAC deposition (WEISLAB, human serum) (human complement C3 [2]): 58 nM
B10: Comparative Compound A3 (antibody, human IgG1, kappa, V domains shown)
VH: QVQLVQSGAEVKKPGASVKVSCKASGYTFTDFYMDWVRQAPGQRLEWMGYIYPHNGGTTYNQQFTGRVTITVDKSASTAYMELSSLRSEDTAVYYCARRGGFDFDYWGQGTLVTVSS
VL: DIQMTQSPSSLSASVGDRVTITCKASENVDTYVSWYQQKPGKAPKLLIYGASNRYTGVPSRFSGSGSGTDFTFTISSLQPEDIATYHCGQSHSYPLTFGQGTKLEIKR
IC50 (nM), Alternative Pathway, Hemolysis (rabbit erythrocytes, human serum) (human complement C3 [2]): 207 nM
IC50 (nM), Classical Pathway, Hemolysis (antibody-sensitized sheep erythrocytes, human serum) (human complement C3 [2]): 56 nM
